B1: Mitogen-activated protein kinase kinase kinase 3 (Homo sapiens), Q99759 (parent)
chain: MDEQEALNSIMNDLVALQMNRRHRMPGYETMKNKDTGHSNRQSDVRIKFEHNGERRIIAFSRPVKYEDVEHKVTTVFGQPLDLHYMNNELSILLKNQDDLDKAIDILDRSSSMKSLRILLLSQDRNHNSSSPHSGVSRQVRIKASQSAGDINTIYQPPEPRSRHLSVSSQNPGRSSPPPGYVPERQQHIARQGSYTSINSEGEFIPETSEQCMLDPLSSAENSLSGSCQSLDRSADSPSFRKSRMSRAQSFPDNRQEYSDRETQLYDKGVKGGTYPRRYHVSVHHKDYSDGRRTFPRIRRHQGNLFTLVPSSRSLSTNGENMGLAVQYLDPRGRLRSADSENALSVQERNVPTKSPSAPINWRRGKLLGQGAFGRVYLCYDVDTGRELASKQVQFDPDSPETSKEVSALECEIQLLKNLQHERIVQYYGCLRDRAEKTLTIFMEYMPGGSVKDQLKAYGALTESVTRKYTRQILEGMSYLHSNMIVHRDIKGANILRDSAGNVKLGDFGASKRLQTICMSGTGMRSVTGTPYWMSPEVISGEGYGRKADVWSLGCTVVEMLTEKPPWAEYEAMAAIFKIATQPTNPQLPSHISEHGRDFLRRIFVEARQRPSAEELLTHHFAQLMY

Variants of: B1
Conditions: with mk03_human MAPK3, P27361
Sequence of mk03_human MAPK3, P27361 (P27361 whole entry): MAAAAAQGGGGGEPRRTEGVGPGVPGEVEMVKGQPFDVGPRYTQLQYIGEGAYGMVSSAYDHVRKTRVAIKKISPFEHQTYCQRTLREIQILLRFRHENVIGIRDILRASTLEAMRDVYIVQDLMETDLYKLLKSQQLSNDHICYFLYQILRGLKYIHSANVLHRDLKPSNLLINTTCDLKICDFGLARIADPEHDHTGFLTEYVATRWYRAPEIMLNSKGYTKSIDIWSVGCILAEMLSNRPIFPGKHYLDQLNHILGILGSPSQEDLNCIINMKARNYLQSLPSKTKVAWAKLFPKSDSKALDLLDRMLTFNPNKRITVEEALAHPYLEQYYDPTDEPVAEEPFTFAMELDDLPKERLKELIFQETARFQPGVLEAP

effect of a mutation on the interaction | Variant
disrupting interaction | K391M
disrupting interaction | S526A
disrupting interaction | T530A

Reference: IntAct's records for PubMed 16407301
